How the values were obtained:
[1] = target: membrane-bound PD-L1 on MDA-MB-231 cells (Homo sapiens?) (UniProt Q9NZQ7); test: cell retention assay; settings: aptamer on slide, 5' amine (NH2), BLI: 1x PBS pH 7.4, aptamers 3-12 uM, 300 s association, 600 s dissociation, temperature not stated, EMSA: TBE-PAGE, binding buffer composition not given
[2] = target: membrane-bound PD-L1 on MDA-MB-231 cells, PNGase F treated (UniProt Q9NZQ7); test: cell retention assay; settings: 5' amine (NH2), BLI: 1x PBS pH 7.4, aptamers 3-12 uM, 300 s association, 600 s dissociation, temperature not stated, EMSA: TBE-PAGE, binding buffer composition not given
Chain of membrane-bound PD-L1 on MDA-MB-231 cells, PNGase F treated (Q9NZQ7 19-290): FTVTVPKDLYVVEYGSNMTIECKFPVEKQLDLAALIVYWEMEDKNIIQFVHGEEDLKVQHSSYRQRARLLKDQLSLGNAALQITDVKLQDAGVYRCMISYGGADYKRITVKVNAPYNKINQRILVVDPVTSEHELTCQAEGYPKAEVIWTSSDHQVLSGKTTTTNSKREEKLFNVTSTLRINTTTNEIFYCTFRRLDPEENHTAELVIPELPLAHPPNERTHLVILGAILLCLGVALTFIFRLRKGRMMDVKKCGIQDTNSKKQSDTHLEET

Chain of membrane-bound PD-L1 on MDA-MB-231 cells (Homo sapiens?) (Q9NZQ7 19-290): as above

“ATAGTCCCTGGCGTGCTTGGTCGGCAGAGCAGGTACGGTGTCA [Apt45]” showed a binding signal (% cells retained) ([1]; negligible adhesion) of 5.9 and a binding signal (% cells retained) [2] of 46.
“GTACCTGCTCTCCGCGCGAAGCACGCCAGGGACT [Tr-Apt13]” gave a binding signal (% cells retained) [1] of 86.8.
With “TGACACCGTACCTGCTCTCCGCGCGAAGCACGCCAGGGACTAT [Apt13]” the binding signal (% cells retained) ([1]; comparison with Apt45) was 72.9 and the binding signal (% cells retained) ([1]; comparison with Tr-Apt13) was 62.8.

From publication PMC12806343
